# Reference: the supplement of paper PMC5998384
# Columns and labels:
# HeLa Kyoto [1] = assay: solubility in G1/S (NP-40 vs SDS abundance) (log2 ratio); higher = more soluble; conditions: cell cycle stage: G1/S
# HeLa Kyoto [2] = assay: melting temperature (median over replicates), in situ; higher = more thermally stable
# HeLa Kyoto [3] = assay: solubility change mitosis vs G1/S (difference of NP-40 vs SDS log2 ratios) (log2 ratio difference); higher = more soluble in mitosis
# HeLa Kyoto [4] = assay: thermal stability score vs G1/S (z-score of summed log2 fold changes over temperatures); higher = more thermally stable than in G1/S
# [5] = cell cycle stage: early G1 (4.5 h after nocodazole release)
# 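Wherever melting temperature (median over replicates), in situ is given: HeLa Kyoto cells synchronized by double thymidine or nocodazole block, proteins quantified by TMT10plex mass spectrometry, three independent biological replicates.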
# 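Wherever solubility change mitosis vs G1/S (difference of NP-40 vs SDS log2 ratios) is given: synchronized HeLa Kyoto cells (double thymidine block for G1/S, nocodazole release for mitosis), protein amounts in NP-40 versus SDS lysates quantified by mass spectrometry, three biological replicates.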
# 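Wherever solubility in G1/S (NP-40 vs SDS abundance) is given: HeLa Kyoto cells arrested at G1/S by double thymidine block, proteins quantified by TMT10plex mass spectrometry in mild NP-40 versus SDS extracts, three biological replicates.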
# 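Wherever thermal stability score vs G1/S (z-score of summed log2 fold changes over temperatures) is given: synchronized HeLa Kyoto cells, proteins quantified by TMT10plex mass spectrometry, three biological replicates, mitosis taken 0.5 h after nocodazole release, G1/S directly after double thymidine block.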
Sequence,solubility in G1/S (log2) (HeLa Kyoto [1]),melting temperature (HeLa Kyoto [2]; cell cycle stage: G1/S),melting temperature (HeLa Kyoto [2]; cell cycle stage: mitosis),solubility change mitosis (log2) (HeLa Kyoto [3]),thermal stability score (HeLa Kyoto [4]; [5]),thermal stability score (HeLa Kyoto [4]; cell cycle stage: mitosis)
MAVKVQTTKRGDPHELRNIFLQYASTEVDGERYMTPEDFVQRYLGLYNDPNSNPKIVQLLAGVADQTKDGLISYQEFLAFESVLCAPDSMFIVAFQLFDKSGNGEVTFENVKEIFGQTIIHHHIPFNWDCEFIRLHFGHNRKKHLNYTEFTQFLQELQLEHARQAFALKDKSKSGMISGLDFSDIMVTIRSHMLTPFVEENLVSAAGGSISHQVSFSYFNAFNSLLNNMELVRKIYSTLAGTRKDVEVTKEEFAQSAIRYGQVTPLEIDILYQLADLYNASGRLTLADIERIAPLAEGALPYNLAELQRQQSPGLGRPIWLQIAESAYRFTLGSVAGAVGATAVYPIDLVKTRMQNQRGSGSVVGELMYKNSFDCFKKVLRYEGFFGLYRGLIPQLIGVAPEKAIKLTVNDFVRDKFTRRDGSVPLPAEVLAGGCAGGSQVIFTNPLEIVKIRLQVAGEITTGPRVSALNVLRDLGIFGLYKGAKACFLRDIPFSAIYFPVYAHCKLLLADENGHVGGLNLLAAGAMAGVPAASLVTPADVIKTRLQVAARAGQTTYSGVIDCFRKILREEGPSAFWKGTAARVFRSSPQFGVTLVTYELLQRWFYIDFGGLKPAGSEPTPKSRIADLPPANPDHIGGYRLATATFAGIENKFGLYLPKFKSPSVAVVQPKAAVAATQ [SLC25A12],-0.00588,56 °C,57.1 °C,-0.128,-0.889,-1.22
MWRRKHPRTSGGTRGVLSGNRGVEYGSGRGHLGTFEGRWRKLPKMPEAVGTDPSTSRKMAELEEVTLDGKPLQALRVTDLKAALEQRGLAKSGQKSALVKRLKGALMLENLQKHSTPHAAFQPNSQIGEEMSQNSFIKQYLEKQQELLRQRLEREAREAAELEEASAESEDEMIHPEGVASLLPPDFQSSLERPELELSRHSPRKSSSISEEKGDSDDEKPRKGERRSSRVRQARAAKLSEGSQPAEEEEDQETPSRNLRVRADRNLKTEEEEEEEEEEEEDDEEEEGDDEGQKSREAPILKEFKEEGEEIPRVKPEEMMDERPKTRSQEQEVLERGGRFTRSQEEARKSHLARQQQEKEMKTTSPLEEEEREIKSSQGLKEKSKSPSPPRLTEDRKKASLVALPEQTASEEETPPPLLTKEASSPPPHPQLHSEEEIEPMEGPAPAVLIQLSPPNTDADTRELLVSQHTVQLVGGLSPLSSPSDTKAESPAEKVPEESVLPLVQKSTLADYSAQKDLEPESDRSAQPLPLKIEELALAKGITEECLKQPSLEQKEGRRASHTLLPSHRLKQSADSSSSRSSSSSSSSSRSRSRSPDSSGSRSHSPLRSKQRDVAQARTHANPRGRPKMGSRSTSESRSRSRSRSRSASSNSRKSLSPGVSRDSSTSYTETKDPSSGQEVATPPVPQLQVCEPKERTSTSSSSVQARRLSQPESAEKHVTQRLQPERGSPKKCEAEEAEPPAATQPQTSETQTSHLPESERIHHTVEEKEEVTMDTSENRPENDVPEPPMPIADQVSNDDRPEGSVEDEEKKESSLPKSFKRKISVVSATKGVPAGNSDTEGGQPGRKRRWGASTATTQKKPSISITTESLKSLIPDIKPLAGQEAVVDLHADDSRISEDETERNGDDGTHDKGLKICRTVTQVVPAEGQENGQREEEEEEKEPEAEPPVPPQVSVEVALPPPAEHEVKKVTLGDTLTRRSISQQKSGVSITIDDPVRTAQVPSPPRGKISNIVHISNLVRPFTLGQLKELLGRTGTLVEEAFWIDKIKSHCFVTYSTVEEAVATRTALHGVKWPQSNPKFLCADYAEQDELDYHRGLLVDRPSETKTEEQGIPRPLHPPPPPPVQPPQHPRAEQREQERAVREQWAEREREMERRERTRSEREWDRDKVREGPRSRSRSRDRRRKERAKSKEKKSEKKEKAQEEPPAKLLDDLFRKTKAAPCIYWLPLTDSQIVQKEAERAERAKEREKRRKEQEEEEQKEREKEAERERNRQLEREKRREHSRERDRERERERERDRGDRDRDRERDRERGRERDRRDTKRHSRSRSRSTPVRDRGGRR [ACIN1],-1.35,49.6 °C,50.8 °C,0.887,-3.76,-1.15
MSENLDKSNVNEAGKSKSNDSEEGLEDAVEGADEALQKAIKSDSSSPQRVQRPHSSPPRFVTVEELLETARGVTNMALAHEIVVNGDFQIKPVELPENSLKKRVKEIVHKAFWDCLSVQLSEDPPAYDHAIKLVGEIKETLLSFLLPGHTRLRNQITEVLDLDLIKQEAENGALDISKLAEFIIGMMGTLCAPARDEEVKKLKDIKEIVPLFREIFSVLDLMKVDMANFAISSIRPHLMQQSVEYERKKFQEILERQPNSLDFVTQWLEEASEDLMTQKYKHALPVGGMAAGSGDMPRLSPVAVQNYAYLKLLKWDHLQRPFPETVLMDQSRFHELQLQLEQLTILGAVLLVTFSMAAPGISSQADFAEKLKMIVKILLTDMHLPSFHLKDVLTTIGEKVCLEVSSCLSLCGSSPFTTDKETVLKGQIQAVASPDDPIRRIMESRILTFLETYLASGHQKPLPTVPGGLSPVQRELEEVAIKFARLVNYNKMVFCPYYDAILSKILVRS [TCP11L1],0.346,–,–,0.1,1.37,1.4
MSKISEAVKRARAAFSSGRTRPLQFRIQQLEALQRLIQEQEQELVGALAADLHKNEWNAYYEEVVYVLEEIEYMIQKLPEWAADEPVEKTPQTQQDELYIHSEPLGVVLVIGTWNYPFNLTIQPMVGAIAAGNSVVLKPSELSENMASLLATIIPQYLDKDLYPVINGGVPETTELLKERFDHILYTGSTGVGKIIMTAAAKHLTPVTLELGGKSPCYVDKNCDLDVACRRIAWGKFMNSGQTCVAPDYILCDPSIQNQIVEKLKKSLKEFYGEDAKKSRDYGRIISARHFQRVMGLIEGQKVAYGGTGDAATRYIAPTILTDVDPQSPVMQEEIFGPVLPIVCVRSLEEAIQFINQREKPLALYMFSSNDKVIKKMIAETSSGGVAANDVIVHITLHSLPFGGVGNSGMGSYHGKKSFETFSHRRSCLVRPLMNDEGLKVRYPPSPAKMTQH [ALDH3A1],0.316,–,–,-0.153,0.258,-0.475
